{"source": "paper PMC10827754", "about": "“The crystal structure of SUN1-KASH6 reveals an asymmetric LINC complex architecture compatible with nuclear membrane insertion” (Communications Biology, 2024)", "molecules": {"B1": {"name": "KASH6 core H539Q (human JAW1/LRMP amino-acids 531-555) (peptide)", "chain": "EDSWTSLEQILWPFTRLRHNGPPPV"}, "B2": {"name": "KASH6 core (human JAW1/LRMP amino-acids 531-555) (peptide)", "chain": "EDSWTSLEHILWPFTRLRHNGPPPV"}, "B3": {"name": "KASH6 core H539K (human JAW1/LRMP amino-acids 531-555) (peptide)", "chain": "EDSWTSLEKILWPFTRLRHNGPPPV"}, "B4": {"name": "KASH domain of human JAW1/LRMP (KASH6, amino-acids 515-555) (peptide, UniProt Q12912 515-555, looked up)", "chain": "TGQLFQKSVDAAPTQQEDSWTSLEHILWPFTRLRHNGPPPV", "notes": "JAW1/LRMP (lymphoid restricted membrane protein), human, KASH domain, amino-acids 515-555; KASH6α, KASH6β and KASH6γ are the same peptide in three conformations or sites of the crystal structure; also called KASH6α; KASH6β; not shown: His6, N-terminal, cleaved; MBP, N-terminal, cleaved"}, "B5": {"name": "KASH6 core W534A (human JAW1/LRMP amino-acids 531-555) (peptide)", "chain": "EDSATSLEHILWPFTRLRHNGPPPV"}, "B6": {"name": "KASH6 core H549Y (human JAW1/LRMP amino-acids 531-555) (peptide)", "chain": "EDSWTSLEHILWPFTRLRYNGPPPV"}}, "key": {"[1]": {"biological_target": "SUN domain of human SUN1 (amino-acids 616-812) (human)", "experiment": "SEC-MALS; untreated (native) co-purified complex; 8-13 mg/ml loaded on Superdex 200 Increase 10/300 GL in 20 mM Hepes pH 7.5, 150 mM KCl, 2 mM DTT"}, "[2]": {"biological_target": "SUN domain of human SUN1 (amino-acids 616-812) (human)", "experiment": "crystal structure; co-expressed and co-purified SUN1-KASH6 at 12 mg/ml; sitting drops, 20 °C; MES pH 6.0 (1.7 Å), Bis Tris pH 5.5 (2.3 Å), sodium citrate pH 5.5 (2.0 Å)"}, "[3]": {"biological_target": "SUN domain of human SUN1 (amino-acids 616-812) (human)", "experiment": "SEC-MALS; co-purified complex treated overnight in 20 mM sodium acetate pH 5.0, 150 mM KCl, 10% glycerol, 2 mM DTT, then analysed in 20 mM Hepes pH 7.5, 150 mM KCl, 2 mM DTT"}, "[4]": {"biological_target": "SUN domain of human SUN1 (amino-acids 616-812) (human)", "experiment": "SEC-MALS; untreated (native) co-purified complex; 8-13 mg/ml loaded on Superdex 200 Increase 10/300 GL in 20 mM Hepes pH 7.5, 150 mM KCl, 2 mM DTT", "remark": "listed apart in the source"}, "[5]": {"biological_target": "SUN domain of human SUN1 (amino-acids 616-812) (human)", "experiment": "crystal structure; co-expressed and co-purified SUN1-KASH6 at 12 mg/ml; sitting drops, 20 °C; MES pH 6.0 (1.7 Å), Bis Tris pH 5.5 (2.3 Å), sodium citrate pH 5.5 (2.0 Å)", "remark": "listed apart in the source"}, "[6]": {"biological_target": "the molecule itself", "experiment": "crystal structure; co-expressed and co-purified SUN1-KASH6 at 12 mg/ml; sitting drops, 20 °C; MES pH 6.0 (1.7 Å), Bis Tris pH 5.5 (2.3 Å), sodium citrate pH 5.5 (2.0 Å)"}}, "note": "Several values for one entry are separate records, joined by “and”; a condition that tells them apart may be missing. Identical values can stand only once."}
{"molecule": "SUN domain of human SUN1 (amino-acids 616-812) (domain or fragment)", "values": [{"measurement": "stoichiometry N", "setting": "[1]", "result": 6}, {"measurement": "stoichiometry N", "setting": "[2]", "result": 9}, {"measurement": "stoichiometry N", "setting": "[3]", "result": "9 and 6"}]}
{"molecule": "B1", "values": [{"measurement": "stoichiometry N (KASH6 per SUN1)", "setting": "[3]", "result": 1}]}
{"molecule": "B2", "values": [{"measurement": "stoichiometry N (KASH6 per SUN1)", "setting": "[4]", "result": 1}, {"measurement": "percent (by mass) as 6:6 complex", "setting": "[3]", "result": "15 % (by mass)"}, {"measurement": "percent (by mass) as 9:6 complex", "setting": "[3]", "result": "85 % (by mass)"}, {"measurement": "stoichiometry N (KASH6 per SUN1)", "setting": "[3]", "result": 0.67}]}
{"molecule": "B3", "values": [{"measurement": "percent (by mass) as 6:6 complex", "setting": "[4]", "result": "40 % (by mass)"}, {"measurement": "percent (by mass) as 9:6 complex", "setting": "[4]", "result": "60 % (by mass)"}, {"measurement": "stoichiometry N (KASH6 per SUN1)", "setting": "[4]", "result": "1 and 0.67"}]}
{"molecule": "B4", "values": [{"measurement": "stoichiometry N (KASH6 per SUN1)", "setting": "[4]", "result": 1}, {"measurement": "stoichiometry N (KASH6 per SUN1)", "setting": "[5]", "result": 0.67}, {"measurement": "stoichiometry N (KASH6 per SUN1)", "setting": "[3]", "result": "0.67 and 1"}, {"measurement": "binding result", "setting": "[6]", "result": "binds"}]}
{"molecule": "B5", "values": [{"measurement": "stoichiometry N (KASH6 per SUN1)", "setting": "[3]", "result": 1}]}
{"molecule": "B6", "values": [{"measurement": "percent (by mass) as 6:6 complex", "setting": "[3]", "result": "55 % (by mass)"}, {"measurement": "percent (by mass) as 9:6 complex", "setting": "[3]", "result": "45 % (by mass)"}, {"measurement": "stoichiometry N (KASH6 per SUN1)", "setting": "[3]", "result": "0.67 and 1"}]}
